Legend:
[1] = molecular target: FPRL1 on freshly isolated monocytes (human) (UniProt P25090); assay: cell-based or functional assay
[2] = molecular target: full length GPI-linked D1D2D3 (cell surface uPAR) (human) (UniProt Q03405); assay: cell-based or functional assay
[3] = molecular target: T1, soluble recombinant uPAR fragment D2D3 93-274 (human, UniProt Q03405 115-296); assay: standard ELISA, coated purified protein, 7G1 as detecting antibody (FIG. 7A)
T1 construct: Purified from COS-7 supernatant on an anti-FLAG column; Mature-protein numbering
T1 sequence (Q03405 other isoform, or with tags, fused parts or gaps limits assumed): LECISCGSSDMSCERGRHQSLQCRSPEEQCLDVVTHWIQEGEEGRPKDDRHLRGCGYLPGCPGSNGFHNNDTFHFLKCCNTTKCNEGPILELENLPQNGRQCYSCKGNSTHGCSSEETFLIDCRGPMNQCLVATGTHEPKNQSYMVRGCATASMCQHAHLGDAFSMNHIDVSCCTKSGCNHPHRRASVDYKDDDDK

full length GPI-linked D1D2D3 (cell surface uPAR) (human), sequence (Q03405 23-305, one chain of several): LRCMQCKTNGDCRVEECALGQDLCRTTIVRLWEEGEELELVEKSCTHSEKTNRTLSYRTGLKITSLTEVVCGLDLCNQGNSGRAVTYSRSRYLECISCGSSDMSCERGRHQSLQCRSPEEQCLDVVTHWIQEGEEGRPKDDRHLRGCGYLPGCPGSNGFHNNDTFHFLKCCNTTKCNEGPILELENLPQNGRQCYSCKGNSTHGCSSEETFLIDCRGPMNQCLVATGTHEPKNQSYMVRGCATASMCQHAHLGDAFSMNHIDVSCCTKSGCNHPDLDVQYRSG
FPRL1 on freshly isolated monocytes (human), sequence (P25090 whole entry): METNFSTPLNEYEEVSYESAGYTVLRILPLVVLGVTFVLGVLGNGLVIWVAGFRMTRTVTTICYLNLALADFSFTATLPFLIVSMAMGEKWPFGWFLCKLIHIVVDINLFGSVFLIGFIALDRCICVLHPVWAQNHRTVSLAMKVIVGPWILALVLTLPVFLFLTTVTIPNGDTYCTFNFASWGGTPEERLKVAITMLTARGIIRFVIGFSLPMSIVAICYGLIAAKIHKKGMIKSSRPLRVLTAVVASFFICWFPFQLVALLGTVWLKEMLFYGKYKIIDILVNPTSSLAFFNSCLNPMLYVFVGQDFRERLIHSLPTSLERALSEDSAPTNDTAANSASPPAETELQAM

Row | % induced migration of monocytes, MMK-1 as chemoattractant, rabbit IgG control present [1] [%] | Migration fold increase, MMK-1 as chemoattractant, rabbit IgG control present [1] [fold] | % induced migration (ATF) of monocytes, antibody 50 µg/ml [2] [%] | % of inhibition (referred to MOPC treatment) [2] [%] | Migration fold increase [2] [fold] | fold lower recognition than of D2D3 84-274 [3] [fold] | Molecule
1 | 303 | 2.94 | – | – | – | – | MMK-1, FPRL1 ligand (peptide)
2 | – | – | 210 | 10 | 2.44 | ≥ 100 | monoclonal antibody 7G1 (antibody, V domains shown) VH: VQLQESGPELKKPGETVKISCKASGYTFTDYSMHWVKQAPGKGLKCMGWINTETTKSTYADDFKGRFALSLETSASTVYLQISNLKNEDTATYFCAREASYGEFDYWGQGTTVTVSS VL: DIVLTQSPASLAVSLGQRATISCRASKSVSTSGYSYMHWYQQKPGQPPKLLIYLASNLESGVPARFSGSGSGTDFTLDIHPVEEEDAATYYCQHSRELPYTFGGGTKLELK
